Measurements published in patent publication US20170145086A1.

How the values were obtained:
[1] = biological target: HA-GCN4 hAPRIL (amino acid residues 105-250) (human) (UniProt O75888); experiment: blocking ELISA; blocked: APRIL binding to TACI-Fc
[2] = biological target: HA-GCN4 hAPRIL (amino acid residues 105-250) (human) (UniProt O75888); experiment: indirect ELISA, purified antibody, 3-parameter fit
[3] = biological target: HA-GCN4 hAPRIL (amino acid residues 105-250) (human) (UniProt O75888); experiment: blocking ELISA, 4-parameter fit; blocked: human APRIL binding to human BCMA-Fc
[4] = biological target: HA-GCN4 hAPRIL (amino acid residues 105-250) (human) (UniProt O75888); experiment: blocking ELISA; blocked: human APRIL binding to human BCMA-Fc
[5] = biological target: HA-GCN4 hAPRIL (amino acid residues 105-250) (human) (UniProt O75888); experiment: blocking ELISA; blocked: human APRIL binding to human TACI-Fc
[6] = biological target: HA-GCN4 hAPRIL (amino acid residues 105-250) (human) (UniProt O75888); experiment: blocking ELISA, 4-parameter fit; blocked: human APRIL binding to human TACI-Fc

HA-GCN4 hAPRIL (amino acid residues 105-250) (human), sequence (O75888 105-250): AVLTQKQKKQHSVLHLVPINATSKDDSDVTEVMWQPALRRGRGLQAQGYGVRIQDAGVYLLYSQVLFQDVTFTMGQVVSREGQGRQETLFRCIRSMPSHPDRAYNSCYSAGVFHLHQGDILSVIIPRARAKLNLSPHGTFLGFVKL

B1: 0201 (antibody, from another filing)
scFv: EVQLVQSGAEVKKPGASVKVSCKTSGYTFTDNYMHWVRQAPGQGLEWMGWISPNSSTTLYAQKFRGRVTLTRDTSVSTAYMELSGLDSDDTALYFCARGGRLAGSTVFTPAFEYWGRGTMVTVSSGGGGSGGGGSGGGGSAQAVLTQPSSVSEAPRQRVTISCSGSSSNIGNNAVKWYQQLPGKAPKLLIYYDDLLPSGVSDRFSGSKSGTSASLAISGLQSEDEADYYCAAWDDSLNGYVFGTGTKVTVLG
B1 gave an IC50 [1] of 0.204 µg/mL, an EC50 [2] of 0.0104 µg/mL and an IC50 [3] of 3.14 nM. The % Inhibition [4] was 99%, the % Inhibition [5] was 99% and the IC50 [6] was 2.85 nM.
